In patent US6207419A, “Thrombin inhibitory agents and methods of using same” (The University of North Carolina at Chapel Hill, priority 1999, dated 2001):

Tests used:
thrombin = details: cited from earlier work
[1] = target: T1, plasma purified α-thrombin (Homo sapiens, UniProt P00734); assay: Thrombin inhibition in the presence of glycosaminoglycans (heparin or dermatan sulfate); assay type: biochemical; details: heparin at optimal concentration
T1 construct: Human α-thrombin, HCII, and ATIII were purified in our laboratory from plasma; from tissue; host or cells: human plasma (purified in the authors' laboratory)
Method: Protease inhibition rates were determined as described previously (Rogers, S. J., Pratt, C. W., Whinna, H. C., and Church, F. C. (1992) J. Biol. Chem. 267(6), 3613-3617; Whinna, H. C., Choi, H. U., Rosenberg, L. C., and Church, F. C. (1993) J. Biol. Chem. 268, 3920-3924; Ciaccia, A. V., Cunningham, E. L., and Church, F. C. (1995) Protein Express. Purific. 6, 806-812; Ciaccia, A. V., Willemze, A. J., and Church, F. C. (1997) J. Biol. Chem. 272(2), 888-893). All assays were performed at room temperature in 96-well microtiter plates previously coated with 2 mg/mL BSA.
In the presence of glycosaminoglycans, 5 nM rHCII (wt, CHis6, CHis5 Pro, L444R, or L444R-CHis6) was incubated with 0.5 nM thrombin and 0-1 mg/mL heparin or 0-4 mg/mL dermatan sulfate or 10 nM rATIII (wt or CHis6) was incubated with 1 nM thrombin or factor Xa and 0-1 mg/mL heparin in the presence of 2 mg/mL BSA in HNPN, pH 7.4.
(§1) Residual thrombin activity was measured with 150 μM GlyProArg-NA and 1 mg/mL pB in the absence of glycosaminoglycan, 2 mg/mL pB in the presence of heparin and 4 mg/mL in the presence of dermatan sulfate. Residual factor Xa activity was measured with 500 μM Spectrozyme FXa and 2mg/mL pB in the presence or absence of glycosaminoglycan. Residual chymotrypsin activity was measured with 150 μM AlaAlaProPhe-NA and residual trypsin activity was measured with 150 μM GlyProArg-NA. Substrate cleavage was measured by color development at 405 nM on a Vmax Kinetic Microplate Reader (Molecular Devices).
Assays were performed at least in triplicate on two or more recombinant protein preparations. All inhibition studies were measured under pseudo-first order conditions where inhibitor [I] is at least ten-fold higher than enzyme (protease) [E], and second-order rate constants were calculated as described previously (Ciaccia, A. V., Cunningham, E. L., and Church, F. C. (1995) Protein Express. Purific. 6, 806-812; Ciaccia, A. V., Willemze, A. J., and Church, F. C. (1997) J. Biol. Chem. 272(2), 888-893).

[2] = target: T1, plasma purified α-thrombin; details: value printed with literature reference; cited from earlier work
α-thrombin = target: T2, α-thrombin (Homo sapiens, UniProt P00734); assay: Effect of hirugen on thrombin inhibition in the absence of glycosaminoglycan; assay type: biochemical
T2 construct: Human α-thrombin, HCII, and ATIII were purified in our laboratory from plasma; from tissue; host or cells: human plasma (purified in the authors' laboratory)
Method: as §1, with “GlyProArg-NA.” for “GlyProArg-NA. Substrate cleavage was measured by color development at 405 nM on a Vmax Kinetic Microplate Reader (Molecular Devices).”
Assays were performed at least in triplicate on two or more recombinant protein preparations.

[3] = Heparin-Sepharose affinity chromatography; assay type: binding; details: NaCl gradient, 20 mM Hepes pH 7.4
Method: 100 μL of each fraction was aliquoted onto a 96-well microtiter plate and ELISA was performed. The peak elution ionic strength was determined by plotting 405 nm color development and NaCl concentration against the fraction number. All samples were run at least in triplicate using two or more protein preparations. Recombinant ATIII samples were run similarly to the HCII samples, except the elution gradient was run from 50 mM to 2 M NaCl.

maximal rate of thrombin inhibition in the presence of heparin [1]: 1.93±0.38×10^8 M^-1 min^-1 | effect of hirugen on thrombin inhibition, in words (α-thrombin; hirugen 20 μM, absence of glycosaminoglycan): less of an effect | rate constant of inhibition (k2) in the absence of peptide (α-thrombin; no hirugen, no control peptide, FIG. 5): 31200 M⁻¹ s⁻¹
B1: rHCII-L444R: Recombinant HCII with mutation at the reactive site residue P1 (L444R) (protein, UniProt P05546 20-499, looked up, variant L444R)
Heparin cofactor 2: GSKGPLDQLEKGGETAQSADPQWEQLNNKNLSMPLLPADFHKENTVTNDWIPEGEEDDDYLDLEKIFSEDDDYIDIVDSLSVSPTDSDVSAGNILQLFHGKSRIQRLNILNAKFAFNLYRVLKDQVNTFDNIFIAPVGISTAMGMISLGLKGETHEQVHSILHFKDFVNASSKYEITTIHNLFRKLTHRLFRRNFGYTLRSVNDLYIQKQFPILLDFKTKVREYYFAEAQIADFSDPAFISKTNNHIMKLTKGLIKDALENIDPATQMMILNCIYFKGSWVNKFPVEMTHNHNFRLNEREVVKVSMMQTKGNFLAANDQELDCDILQLEYVGGISMLIVVPHKMSGMKTLEAQLTPRVVERWQKSMTNRTREVLLPKFKLEKNYNLVESLKLMGIRMLFDKNGNMAGISDQRIAIDLFKHQGTITVNEEGTQATTVTTVGFMPRSTQVRFTVDRPFLFLIYEHRTSCLLFMGRVANPSRS
increase of the rate of thrombin inhibition compared to wt-rHCII (thrombin; absence of glycosaminoglycan, earlier publications): ~2 orders of magnitude | rate of thrombin inhibition in the absence of glycosaminoglycan (thrombin; value printed with literature reference): 1.3±0.30×10^6 M^-1 min^-1 | maximal rate of thrombin inhibition in the presence of dermatan sulfate [2]: 2.84±0.24×10^6 M^-1 min^-1 | Heparin-Sepharose [NaCl], peak elution concentration [3]: 350 mM
